Source: publication PMC9911985 (Journal of Molecular Biology, 2023)
Where no end group is shown, it is not given here. MBP = not defined here

Target: the molecule itself
Experiment: SEC

## {6xHis-MBP}-SCILLYVVFQKLSARLRALR (domain or fragment, reading uncertain) [6xHis-MBP-selenos 40–59]
  binding result: binds
